Assay results from patent US20180072815A1.

Target: commercially available anti-Stat3 antibody (Abcam)
Assay: ELISA, antibody coated directly at 1 µg/mL

Substance his-probe (H-3) biotin labeled antibody has an OD450 Values of 0.018 OD450.
